± gives the standard deviation of the averaged measurements or the uncertainty stated by the source.
Tests used:
[1] = duplex formation free energy ΔG50 (Van't Hoff fit of HRM Tm); higher = less stable duplex; conditions: temperature for dG: 50 °C, NaCl: 500 mM (unadjusted)
Description: (§1)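 Duplex of the listed DNA strand with its complement, in 1x NNE buffer (500 mM NaCl, pH 7.0) with 1x EvaGreen. ΔH and ΔS come from a Van't Hoff linear fit of 1/Tm against ln(CT/4) over 1-20 uM, using HRM Tm values.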

[2] = duplex formation entropy ΔS (Van't Hoff fit of HRM Tm); higher = smaller entropy loss on duplex formation; conditions: temperature for dG: 50 °C, NaCl: 500 mM (unadjusted)
Description: as §1

[3] = duplex melting temperature (HRM, EvaGreen); higher = more stable duplex
Description: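 Listed DNA strand annealed 1:1 with its complementary strand (95 °C 5 min, 0.1 °C/s to 20 °C). Melted in 1x NNE buffer (500 mM NaCl, 10 mM Na2HPO4, 1 mM EDTA, pH 7.0) with 1x EvaGreen on a LightCycler96 (37 to 97 °C, 0.1 °C/s). Tm is the peak of -dF/dT at the stated total duplex concentration; 4 replicates are averaged. PS oligos are non-stereospecific (Rp/Sp mixtures).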

[4] = duplex formation enthalpy ΔH (Van't Hoff fit of HRM Tm); higher = less exothermic duplex formation; conditions: temperature for dG: 50 °C, NaCl: 500 mM (unadjusted)
Description: as §1

[5] = backbone: PO-PO (both strands phosphodiester DNA)
[6] = backbone: PS-PO (listed strand fully phosphorothioate, complement phosphodiester)
[7] = backbone: PS-PS (both strands fully phosphorothioate)
[8] = duplex concentration 1 µM, backbone: PO-PO (both strands phosphodiester DNA)
[9] = duplex concentration 1 µM, backbone: PS-PO (listed strand fully phosphorothioate, complement phosphodiester)
[10] = duplex concentration 1 µM, backbone: PS-PS (both strands fully phosphorothioate)
[11] = duplex concentration 2.5 µM, backbone: PO-PO (both strands phosphodiester DNA)
[12] = duplex concentration 2.5 µM, backbone: PS-PO (listed strand fully phosphorothioate, complement phosphodiester)
[13] = duplex concentration 2.5 µM, backbone: PS-PS (both strands fully phosphorothioate)
[14] = duplex concentration 5 µM, backbone: PO-PO (both strands phosphodiester DNA)
[15] = duplex concentration 5 µM, backbone: PS-PO (listed strand fully phosphorothioate, complement phosphodiester)
[16] = duplex concentration 5 µM, backbone: PS-PS (both strands fully phosphorothioate)
[17] = duplex concentration 7.5 µM, backbone: PO-PO (both strands phosphodiester DNA)
[18] = duplex concentration 7.5 µM, backbone: PS-PO (listed strand fully phosphorothioate, complement phosphodiester)
[19] = duplex concentration 7.5 µM, backbone: PS-PS (both strands fully phosphorothioate)
[20] = duplex concentration 10 µM, backbone: PO-PO (both strands phosphodiester DNA)
[21] = duplex concentration 10 µM, backbone: PS-PO (listed strand fully phosphorothioate, complement phosphodiester)
[22] = duplex concentration 10 µM, backbone: PS-PS (both strands fully phosphorothioate)
[23] = duplex concentration 15 µM, backbone: PO-PO (both strands phosphodiester DNA)
[24] = duplex concentration 15 µM, backbone: PS-PO (listed strand fully phosphorothioate, complement phosphodiester)
[25] = duplex concentration 15 µM, backbone: PS-PS (both strands fully phosphorothioate)
[26] = duplex concentration 20 µM, backbone: PO-PO (both strands phosphodiester DNA)
[27] = duplex concentration 20 µM, backbone: PS-PO (listed strand fully phosphorothioate, complement phosphodiester)
[28] = duplex concentration 20 µM, backbone: PS-PS (both strands fully phosphorothioate)

Row | Sequence | duplex formation free energy ΔG50 [1, 5] [kcal/mol] | duplex formation free energy ΔG50 [1, 6] [kcal/mol] | duplex formation free energy ΔG50 [1, 7] [kcal/mol] | duplex formation entropy ΔS [2, 5] [cal/mol/K] | duplex formation entropy ΔS [2, 6] [cal/mol/K] | duplex formation entropy ΔS [2, 7] [cal/mol/K] | duplex melting temperature [3, 8] [°C] | duplex melting temperature [3, 9] [°C] | duplex melting temperature [3, 10] [°C] | duplex melting temperature [3, 11] [°C] | duplex melting temperature [3, 12] [°C] | duplex melting temperature [3, 13] [°C] | duplex melting temperature [3, 14] [°C] | duplex melting temperature [3, 15] [°C] | duplex melting temperature [3, 16] [°C] | duplex melting temperature [3, 17] [°C] | duplex melting temperature [3, 18] [°C] | duplex melting temperature [3, 19] [°C] | duplex melting temperature [3, 20] [°C] | duplex melting temperature [3, 21] [°C] | duplex melting temperature [3, 22] [°C] | duplex melting temperature [3, 23] [°C] | duplex melting temperature [3, 24] [°C] | duplex melting temperature [3, 25] [°C] | duplex melting temperature [3, 26] [°C] | duplex melting temperature [3, 27] [°C] | duplex melting temperature [3, 28] [°C] | duplex formation enthalpy ΔH [4, 5] [kcal/mol] | duplex formation enthalpy ΔH [4, 6] [kcal/mol] | duplex formation enthalpy ΔH [4, 7] [kcal/mol]
1 | CTGTAAGGCGATATGTT | -12.5 ± 0.13 | -10.76 ± 0.077 | -8.999 ± 0.015 | -202 ± 7.4 | -192 ± 7.4 | -201 ± 4.6 | 62.12 ± 0.3 | 54.19 ± 0.32 | 46.56 ± 0.46 | 64 ± 0.26 | 57.45 ± 0.17 | 49.35 ± 0.22 | 66.38 ± 0.2 | 59.646 ± 0.025 | 51.33 ± 0.25 | 67.39 ± 0.14 | 60.55 ± 0.14 | 52.31 ± 0.059 | 68.42 ± 0.14 | 61.364 ± 0.05 | 53.15 ± 0.1 | 69.61 ± 0.1 | 62.62 ± 0.11 | 54.29 ± 0.068 | 70.55 ± 0.11 | 63.366 ± 0.049 | 55.12 ± 0.067 | -77.7 ± 2.5 | -72.7 ± 2.5 | -73.8 ± 1.5
2 | CTTTTGTGCGGGTAGC | -12.5 ± 0.21 | -11.07 ± 0.095 | -9.593 ± 0.049 | -179 ± 11 | -176 ± 7.2 | -156 ± 7.6 | 63.84 ± 0.57 | 56.1 | 48.71 ± 0.41 | 65.75 ± 0.34 | 59.24 ± 0.32 | 52.48 ± 0.25 | 68.14 ± 0.14 | 61.53 ± 0.35 | 55.08 ± 0.22 | 69.35 ± 0.31 | 62.94 ± 0.29 | 56.37 ± 0.13 | 70.49 ± 0.15 | 63.93 ± 0.083 | 57.22 ± 0.12 | 71.94 ± 0.13 | 65.13 ± 0.068 | 58.45 ± 0.21 | 73.2 ± 0.36 | 65.98 ± 0.35 | 59.6 ± 0.74 | -70.2 ± 3.7 | -67.9 ± 2.4 | -60 ± 2.5
3 | GAACCGTTGATGATCTC | -12.78 ± 0.09 | -10.93 ± 0.053 | -9.101 ± 0.027 | -208 ± 4.8 | -210 ± 5 | -189 ± 7.2 | 63.4 | 54.79 ± 0.14 | 46.68 ± 0.22 | 65.33 ± 0.31 | 57.31 ± 0.16 | 49.91 ± 0.24 | 67.16 ± 0.13 | 59.39 ± 0.12 | 51.98 ± 0.084 | 68.29 ± 0.098 | 60.41 ± 0.13 | 53.01 ± 0.082 | 69.2 ± 0.096 | 61.285 ± 0.052 | 53.86 ± 0.097 | 70.38 ± 0.088 | 62.38 ± 0.1 | 54.9 ± 0.045 | 71.31 ± 0.079 | 63.117 ± 0.054 | 55.75 ± 0.06 | -80.1 ± 1.6 | -78.8 ± 1.7 | -70.3 ± 2.3
4 | GAACTGCCACTACCAA | -12.27 ± 0.11 | -11.04 ± 0.059 | -9.573 ± 0.046 | -178 ± 5.8 | -185 ± 4.7 | -172 ± 7.9 | 63.2 |  | 48.68 ± 0.086 | 64.85 ± 0.39 | 58.65 ± 0.087 | 52.19 ± 0.14 | 67.25 ± 0.085 | 60.93 ± 0.068 | 54.589 ± 0.051 | 68.57 ± 0.17 | 62.25 ± 0.15 | 55.833 ± 0.044 | 69.531 ± 0.05 | 63.17 ± 0.12 | 56.65 ± 0.09 | 71 ± 0.09 | 64.25 ± 0.11 | 57.7 ± 0.15 | 71.922 ± 0.013 | 65.26 ± 0.12 | 58.53 ± 0.13 | -69.8 ± 2 | -70.8 ± 1.6 | -65.1 ± 2.6

From the supplement of paper PMC9116672
